# Bridges are numbered along the chain shown (N, C = ends). Roman numbers before positions name the chains, in order.
# Columns and labels:
# [1] = tested on: IL-1β signaling (HEK-Blue IL-1β cells); experiment: SEAP reporter assay in HEK-Blue IL-1β reporter cells; type: cell-based, human; details: 10 μM; 250 pg/mL IL-1β
# Experimental: HEK-Blue® IL-33 (Invivogen, Cat. #hkb-hil33) and IL-1β cells (Invivogen, Cat #hkb-il1bv2) were cultured in T25 and T75 flasks (NUNC, Cat. #156367 and #156499) in DMEM media supplemented with L-glutamine (Gibco, Cat. #11995-065), 10% Fetal Bovine Serum (Gibco, Cat. #10437-028), 1% Penicillin/Streptomycin (Gibco, Cat. #15140-148), and 0.5% Normacin® (Invivogen, Cat. #ant-hr-1). IL-33 cell growth media also included 1 mL of 250× Selectin Cocktail® (Invivogen, Cat. #hb-sel) and IL-1β cell growth media included 100 μg/mL of Zeocin® (Cat #ant-zn-05). Cells were maintained at 37° C. with humidity and 5% CO2 and were passaged upon reaching 80-85% confluency. To ensure assay consistency, passage number was kept low (<20) to maintain stable ST2 and IL-1RI expression.
# IL-33 and IL-1β signaling activation was assessed based on the expression of a SEAP reporter gene. Flasks were washed 2× with prewarmed, sterile PBS (Gibco), scraped in fresh media, and spun down for 5 m at 250×g. Pellet was resuspended in 5 mL test medium (DMEM, 10% heat inactivated FBS, and 1% P/S), cells counted, and concentration adjusted to 2.8×10^5 cell/mL. […] After incubation, SEAP reporter gene phosphatase activity was measured by adding 20 μL of supernatant from each well to 180 μL of QuantiBLUE substrate (Invivogen, Cat #rep-qbs) and incubated an additional 30 min at 37° C. Colorimetric absorbance was measured at 620 nm. […]
# [2] = tested on: HEK-Blue cells; experiment: CellTiterGlo cell viability / cellular cytotoxicity assay; type: cell-based, human
# [3] = biological target: T1, IL-1RAcP/ST2/IL-33 ternary complex (Homo sapiens, UniProt O95760+Q01638); experiment: Crosslinking assay of ternary complex (trimer) formation with recombinant IL-33, ST2 and IL-1RAcP; type: biochemical
# T1 construct: included the extracellular domains, K19-F328 and S21-E359, respectively; the cleaved mature proteins, S112-T270, A117-S269, and R2-S310, respectively; purchased Sino Biologicals ST2 10105-HCCH; IL1RAcP 10121-H08H; IL-33 10368-HNAE; host or cells: ST2 and IL1RAcP: HEK293; IL-33: E. coli
# T1 sequence (Q01638 19-328 isoform Q01638-2): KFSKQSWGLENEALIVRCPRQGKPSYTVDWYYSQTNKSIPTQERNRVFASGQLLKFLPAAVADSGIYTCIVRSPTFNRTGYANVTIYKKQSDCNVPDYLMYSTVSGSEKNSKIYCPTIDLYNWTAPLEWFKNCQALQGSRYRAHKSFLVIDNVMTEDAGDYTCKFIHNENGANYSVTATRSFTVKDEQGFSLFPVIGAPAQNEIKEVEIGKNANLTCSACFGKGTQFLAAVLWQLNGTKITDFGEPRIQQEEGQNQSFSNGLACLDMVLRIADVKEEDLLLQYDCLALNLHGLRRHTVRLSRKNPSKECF
# T1 sequence (O95760 112-270): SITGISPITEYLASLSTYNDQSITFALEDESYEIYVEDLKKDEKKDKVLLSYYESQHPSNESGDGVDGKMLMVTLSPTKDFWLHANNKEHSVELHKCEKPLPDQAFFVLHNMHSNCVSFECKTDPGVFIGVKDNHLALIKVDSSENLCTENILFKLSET
# Experimental: MSTOP dose curves were performed with a crosslinking assay. Recombinant IL-33, ST2, and IL-1RAcP were combined as described above and incubated at RT for 30 m in PBS or treated with 10 μM of 3WJ scaffold, WT peptides, or MSTOP in a dose range of 10 μM to 1 nM (1:10 serial dilution). Following incubation, 1 μL of 2.5 mM Disuccinimidyl suberate (DSS, 83 μM) homobifunctional crosslinker was added and reactions were incubated for […] at RT., then quenched with 1 μL of 1 M Tris-HCl. Samples were then prepared for electrophoresis.
# The native receptor has a KD value of 10 μM illustrative of the fact that the interaction is weak and transient (FIG. 3A). […] The prototype MSTOP was finally assessed for bioactivity via prevention of IL-33/ST2 signaling activation. The MSTOP was first tested in vitro with recombinant ST2, IL-33, and IL-1RAcP incubated together in its endogenous 1:1:1 stoichiometry for 30 minutes. Reactions were then treated with DSS homobifunctional NETS-based crosslinker (final concentration ˜85 μM) to tether formed trimers. Trimer resolved at the predicted 120 kDa in semi-native conditions, while unbound IL-1RAcP resolved at 50 kDa. Quantification of IL-1RAcP at 120 kDa was normalized against total lane IL-1RAcP input, with the untreated trimer control representing 100% trimerization. […]
substance,measurement,setting,value
"MSTOP: 3WJ DNA scaffold whose three DBCO staple strands carry cyclized azidolysine IL-1RAcP hotspot peptides; decoy for IL-33/ST2 (peptide 1 Ac-CKEYGIQRITC-NH2; peptide 2 Ac-AKVGSPKNAVPPC-NH2; peptide 3 Ac-CKGEVAKAAKVKC-NH2; disulfide I:1-I:11, III:1-III:13; thioether II:1-II:13; not fully specified (some residues); also: three peptides held on a 3-way junction DNA scaffold via DBCO staple strands)",reduction in SEAP expression,[1],Negligible reduction
same,cell viability,"[2]; 10 μM, CellTiterGlo",did not decrease cell viability
same,cellular cytotoxicity,"[2]; FIG. 4F, concentrations in μM",not toxic
same,reduction of trimer formation,[3]; 1 μM treatment,approximately 40%
same,reduction in trimer formation,"[3]; 10 μM treatment, DSS crosslinking western blot",70%

# From patent US20240084044A1, “Heteromultivalent Nucleic Acid Scaffolds and Uses Thereof” (George Mason University, priority 2022, published 2024)
